Experimental data published in patent publication US20230265421.

System: T1, dFrCas9 (Faecalibaculum rodentium)
T1 sequence: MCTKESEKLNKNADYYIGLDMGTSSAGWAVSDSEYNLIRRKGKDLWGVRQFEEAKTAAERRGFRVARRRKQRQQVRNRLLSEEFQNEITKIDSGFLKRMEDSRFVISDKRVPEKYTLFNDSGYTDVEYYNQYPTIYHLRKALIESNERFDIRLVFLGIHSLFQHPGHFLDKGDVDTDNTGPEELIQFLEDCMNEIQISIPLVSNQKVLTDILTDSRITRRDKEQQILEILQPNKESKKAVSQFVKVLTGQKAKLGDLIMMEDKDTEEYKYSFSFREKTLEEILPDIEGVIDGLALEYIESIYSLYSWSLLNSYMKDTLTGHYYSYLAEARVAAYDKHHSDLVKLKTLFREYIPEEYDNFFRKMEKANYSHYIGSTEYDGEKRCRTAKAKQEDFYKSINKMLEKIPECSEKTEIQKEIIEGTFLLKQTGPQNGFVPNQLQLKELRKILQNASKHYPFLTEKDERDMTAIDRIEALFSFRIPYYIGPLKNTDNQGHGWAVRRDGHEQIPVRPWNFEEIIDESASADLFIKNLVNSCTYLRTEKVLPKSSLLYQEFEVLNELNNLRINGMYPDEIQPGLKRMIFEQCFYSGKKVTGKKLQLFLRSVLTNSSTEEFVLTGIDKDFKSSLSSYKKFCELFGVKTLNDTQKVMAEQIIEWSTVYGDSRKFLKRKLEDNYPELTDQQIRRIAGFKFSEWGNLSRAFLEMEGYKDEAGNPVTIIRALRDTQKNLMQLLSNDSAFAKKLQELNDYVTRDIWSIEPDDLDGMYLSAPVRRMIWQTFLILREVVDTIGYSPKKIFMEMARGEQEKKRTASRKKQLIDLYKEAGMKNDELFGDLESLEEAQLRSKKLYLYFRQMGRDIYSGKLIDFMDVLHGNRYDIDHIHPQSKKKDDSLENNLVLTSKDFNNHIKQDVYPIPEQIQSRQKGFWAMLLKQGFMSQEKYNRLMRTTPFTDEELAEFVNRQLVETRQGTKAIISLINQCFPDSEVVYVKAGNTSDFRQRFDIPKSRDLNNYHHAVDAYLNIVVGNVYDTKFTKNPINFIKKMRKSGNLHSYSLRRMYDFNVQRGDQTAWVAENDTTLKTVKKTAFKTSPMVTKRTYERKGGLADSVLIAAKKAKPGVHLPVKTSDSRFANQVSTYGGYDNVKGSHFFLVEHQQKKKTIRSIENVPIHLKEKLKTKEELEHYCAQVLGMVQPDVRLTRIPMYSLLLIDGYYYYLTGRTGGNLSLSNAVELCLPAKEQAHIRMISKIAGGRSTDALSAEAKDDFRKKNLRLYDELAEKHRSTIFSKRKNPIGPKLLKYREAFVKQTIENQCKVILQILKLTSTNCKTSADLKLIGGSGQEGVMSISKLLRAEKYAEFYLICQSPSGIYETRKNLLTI
Experiment: cell_activity
Details: CRISPRi by binding TATA-box; PAM NNTA

For ABCA1 TATA-box sgRNA ; ABCA1 TATA-box, the activity (% decrease of expression) was 61.7.
